The results in this text go back to patent US20100240578A1 (priority 2006, published 2010).

Read-outs that look alike come from different tables or passages of the source.

Common to all, as to type: cell-based, avian influenza A (H5N1)
For test [1], the system named is bird H5N1 influenza virus strain Duck/MN/1525/81.
Test [2] shares this test system. This is another data set of the same source.
Test [3] has as its system bird H5N1 influenza virus strain Gull/PA/4175/83.
Test [4] shares this test system. The source holds these as a separate data set.
Test [5] concerns humanized H5N1 influenza virus strain Hong Kong/491/1997.
The test system is the same in test [6]. This is another data set of the same source.
Test [7] deals with humanized H5N1 influenza virus strain Hong Kong/213/2003.
Test [8] shares this test system. This is another data set of the same source.
Test [9] deals with humanized H5N1 influenza virus strain Vietnam/1203/2004H.
Test [10] has the same test system. The source holds these as a separate data set.
Test [11] has the same test system. The source holds these as a separate data set.
The subject of test [12] is all tested strains of H5N1.

B1: Cyanovirin-N (protein, listed as Nostoc ellipsosporum)
chain: LGKFSQTCYNSAIQGSVLTSTCERTNGGYNTSSIDLNSVIENVDGSLKWQPSNFIETCRNTQLAGSSELAAECKTRAQQFVSTKINLDDHIANIDGTLKYE
As usually defined, the EC90 is the concentration at which the effect reaches the 90% level. A lower EC90 goes with greater potency. One may read the EC50 as the concentration that produces a half-maximal response. In general, IC50 refers to the concentration at which inhibition is half-maximal. A low value points to higher potency. On to B1, for which the EC90 was 0.7 µg/mL in test [1], 0.1 µg/mL in test [3], 0.1 µg/mL in [5] and 0.2 µg/mL in test [9]. Besides, the EC50 in test [2] is 0.5 µg/mL; in test [4], 0.1 µg/mL; in test [6], below 0.0032 µg/mL; in [11], 0.03 µg/mL. Also, the IC50 in [2] was 2 µg/mL; in test [4] it was 3 µg/mL; in test [6], 3 µg/mL; in test [7], above 1 µg/mL; in [8] it was above 1 µg/mL; in [11], above 1 µg/mL. Moreover, the “activity against the strain (in words)” value in test [4] was “moderately active”; in test [6] it was “moderately active”; in test [8], “highly active”; in test [10], “moderately active”. In addition, the “activity against all tested strains of H5N1 (in words)” value in test [12] is recorded as “active”.
